The values below come from patent US20050064518A1 (PURDUE PHARMA L P, published 2005).

Test [1] concerns the target T1, O772P 3-repeat recombinant protein (human).
T1 construct: Repeats are residues 14-452 of the entry
T1 chain: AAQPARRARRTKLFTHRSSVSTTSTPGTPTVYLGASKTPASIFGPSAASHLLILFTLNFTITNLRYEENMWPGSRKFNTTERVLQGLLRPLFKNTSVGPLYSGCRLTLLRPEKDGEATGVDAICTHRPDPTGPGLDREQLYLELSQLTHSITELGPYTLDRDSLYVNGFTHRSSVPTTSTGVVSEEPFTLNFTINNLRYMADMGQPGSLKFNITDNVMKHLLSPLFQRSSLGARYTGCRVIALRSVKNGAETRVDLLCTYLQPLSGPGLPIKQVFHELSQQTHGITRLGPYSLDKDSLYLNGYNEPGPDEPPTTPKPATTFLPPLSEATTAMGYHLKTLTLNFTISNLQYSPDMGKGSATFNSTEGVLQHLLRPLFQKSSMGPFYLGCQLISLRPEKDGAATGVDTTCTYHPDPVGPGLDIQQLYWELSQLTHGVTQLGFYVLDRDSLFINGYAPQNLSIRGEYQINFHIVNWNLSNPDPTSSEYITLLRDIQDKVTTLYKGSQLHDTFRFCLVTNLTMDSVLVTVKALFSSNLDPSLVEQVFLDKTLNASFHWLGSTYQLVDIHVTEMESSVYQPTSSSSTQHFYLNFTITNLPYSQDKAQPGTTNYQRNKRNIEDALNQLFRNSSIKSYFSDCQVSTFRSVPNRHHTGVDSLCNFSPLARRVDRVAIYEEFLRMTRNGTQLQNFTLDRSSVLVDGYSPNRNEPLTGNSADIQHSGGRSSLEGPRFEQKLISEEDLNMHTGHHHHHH
The test is described as follows: ELISA, plate-bound O772P 3-repeat. On the procedure: On the next day, the plates were washed with 200 μl 1×PBST (1× phosphate-buffered saline (PBS), 0.05% Tween 20) three times and blocked with 100 μl of 1×PBST containing 1% bovine serum albumin (BSA) for 2 hours at 37° C. […] After 1 hour incubation at 37° C., the plates were then washed with 1×PBST three times. For signal detection, 100 μl of HRP (horseradish peroxidase)-conjugated sheep anti-mouse IgG (1:2000 dilution into 1×PBST+1% BSA; Amersham Biosciences) was added to each well and incubated for 1 hour at 37° C. The plates were again washed three times with 1×PBST. Finally, 100 μl¹ of a mixture of TMB (3,3′, 5,5′-tetramethylbenzidine) substrate and H₂O₂ (1:1 ratio, KPL Kirkguard Perry Laboratories) was added into each well and after a 5 minute incubation, the absorbance was measured at 405 nm with a plate reader (Molecular Devices Corp., Sunnyvale, Calif.). The assay was done in triplicate for each selected O772P hybridoma-produced antibody and data was collected and analyzed as a kinetic assay, measured over a 5 minute time period. Average values were calculated and presented. Controls for blank and individual reagents were also included in each experiment.

Test [2] has as its target T2, CA 125/O772P on OVCAR-3 cells (human, UniProt Q8WXI7 1-14507).
T2 construct: whole, on cells
Briefly: flow cytometry, OVCAR-3 cells; Ab 2 µg/ml. (A flow cytometer gives signals particle by particle.)

Test [3] concerns the target T1, O772P 3-repeat recombinant protein. The test is described as follows: ELISA competition, plate-bound O772P 3-repeat; no competitor. How it is done:
(§1) On the next day, the plates were washed with 200 μl 1×PBST (1× phosphate-buffered saline (PBS), 0.05% Tween 20) three times and blocked with 100 μl of 1×PBST containing 1% bovine serum albumin (BSA) for 2 hours at 37° C. […] After 1 hour incubation at 37° C., the plates were then washed with 1×PBST three times. For signal detection, 100 μl of HRP-conjugated sheep anti-mouse IgG (1:2000 dilution into 1×PBST+1% BSA, Amersham Biosciences) was added to each well and incubated for 1 hour at 37° C. The plates were washed again with 1×PBST three times. Finally, 100 μl¹ of a mixture of TMB substrate and H₂O₂ (1:1 ratio, KPL) was added into each well and the absorbance was measured at 405 nm with a plate reader (Molecular Devices Corp., Sunnyvale, Calif.). The assay was done in triplicate for each selected antibody and average values were calculated and presented. The percent inhibition compared to no competition was calculated for individual antibodies based on average values. Controls for blank and individual reagents were also included in each experiment.

Test [4] has as its target T3, O772P 3-repeat TM on transfected NIH/3T3 cells (human).
T3 construct: also called NIH/3T3 O772P 3-repeat
T3 chain: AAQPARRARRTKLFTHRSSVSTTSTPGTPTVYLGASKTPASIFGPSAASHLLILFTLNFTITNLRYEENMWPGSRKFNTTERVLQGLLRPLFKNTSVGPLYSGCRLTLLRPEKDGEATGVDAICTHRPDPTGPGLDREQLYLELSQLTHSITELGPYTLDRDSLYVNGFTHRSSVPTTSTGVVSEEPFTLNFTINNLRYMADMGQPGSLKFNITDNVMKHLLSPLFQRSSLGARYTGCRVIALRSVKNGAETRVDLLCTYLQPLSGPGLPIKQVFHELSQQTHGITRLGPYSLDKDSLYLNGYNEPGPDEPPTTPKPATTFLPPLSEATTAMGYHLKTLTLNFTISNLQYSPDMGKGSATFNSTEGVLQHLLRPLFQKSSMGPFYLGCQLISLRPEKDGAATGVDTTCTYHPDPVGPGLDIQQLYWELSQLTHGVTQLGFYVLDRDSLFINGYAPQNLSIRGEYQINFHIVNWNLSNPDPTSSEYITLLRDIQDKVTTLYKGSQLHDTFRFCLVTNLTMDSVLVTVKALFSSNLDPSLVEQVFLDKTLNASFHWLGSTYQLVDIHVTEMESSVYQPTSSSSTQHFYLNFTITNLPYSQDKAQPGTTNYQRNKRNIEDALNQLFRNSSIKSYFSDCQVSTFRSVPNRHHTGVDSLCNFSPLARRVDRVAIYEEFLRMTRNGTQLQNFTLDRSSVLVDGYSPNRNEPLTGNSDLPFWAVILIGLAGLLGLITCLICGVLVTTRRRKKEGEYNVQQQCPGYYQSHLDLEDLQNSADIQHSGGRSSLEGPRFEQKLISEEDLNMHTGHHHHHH
Briefly: flow cytometry, NIH/3T3 cells expressing O772P 3-repeat TM; Ab 2 µg/ml.

Test [5] concerns the target T1, O772P 3-repeat recombinant protein. Briefly: ELISA competition, plate-bound O772P 3-repeat; competitor shed CA 125/O772P. How it is done:
as §1

For test [6] the target is unchanged. Briefly: ELISA competition, plate-bound O772P 3-repeat; competitor soluble O772P 3-repeat. How it is done: as §1
(In general: An ELISA detects its analyte on a solid surface through an enzyme-linked reagent.)

B1: monoclonal antibody 501.1 (antibody, V domains shown)
VH: QIQLVQSGPELKKPGETVQISCKASGYIFTDYGMNWVKQAPGKGLKWMGCINTYTGETIYSDDFRGRFAISLETSASTAFIQINNLKNEDAATYFCARGNYRDAIDYWGQGTSVTVSS
VL: DIKMTQSPSSIYASLGERVTITCKASQDIKSYLSWYQQKPWKSPKTLIYYATTLADGVPSRFSGSGSGQDYSLIINSLESDDIATYFCLHHDESPFTFGSGTKLEI
notes: Murine hybridoma antibody
Regarding B1, in test [1], the “absorbance (OD)” value was determined as 0.856 OD and the “absorbance (OD)/µg Ab” value was 21 OD/µg Ab. The “% positive cells” value in test [2] was determined as 95%. Besides, the absorbance in test [3] was 0.856 OD. In addition, the “% positive cells” value in test [4] is 89%. Moreover, the “absorbance w/shed CA 125/O772P competitor (25-fold w/w excess)” value in test [5] came out at 0.735 OD. In addition, in test [6], the “absorbance w/O772P 3-repeat competitor (10 x w/w excess)” value (“absorbance w/O772P 3-repeat competitor” below) turned out to be 0.065 OD.

B2: monoclonal antibody 117.1 (antibody, V domains shown)
VH: QVTLKESGPGILQPSQTLSLTCSFSGFSLSTPGMGVGWIRQPSGKGLEWLAHIWWDDFKRDNPALKSRLTISKDTSSSQVFLKIASVDTADTATYYCVRVDGNFLSWYFDVWGAGTTVTVSS
VL: DAVMTQTPLSLPVSLGDQASISCRSSQSLVHSNGNTYLHWYLQKPGQSPKLLIYKVSNRFSGVPDRFSGSGSGTDFTLRISRVEAEDLGVYFCSQSRYVPWTFGGGTKLEIK
notes: Murine hybridoma antibody
On to B2, for which, in test [1], the “absorbance (OD)” value worked out at 0.619 OD and the “absorbance (OD)/µg Ab” value was determined as 15 OD/µg Ab. In test [2], the “% positive cells” value stood at 93%. Besides, the absorbance in test [3] is 0.619 OD. The “% positive cells” value in test [4] was 83%. Further, the “absorbance w/shed CA 125/O772P competitor (25-fold w/w excess)” value in test [5] was found to be 0.554 OD. In addition, in test [6], the “absorbance w/O772P 3-repeat competitor” value came out at 0.071 OD.

B3: monoclonal antibody 368.1 (antibody, V domains shown)
VH: EVQLQQSGPELVRTGASVKISCKASGYSFTGFYMHWVKQSLGKSLEWIGYVSCYTGATTYTQKFKGKATFTVDTSSSTAYMQLNSLTSEDSAVYYCAREGDYYSMDFWGQGTSVTVSS
VL: DVVMTQTPLSLPVSLGDQASISCRSSQSLERTNGNTYLHWYLQKPGQSPKLLIYKVSSRFSGVPDRFSGSGSGTDFTLKISRVEAEDLGIYFCSQTTHGPPTCGGGTKLEIK
notes: Murine hybridoma antibody
With B3, the “absorbance (OD)” value in test [1] turned out to be 1.29 OD. In addition, the “absorbance (OD)/µg Ab” value in test [1] amounted to 32 OD/µg Ab. The “% positive cells” value in test [2] was determined as 89%; in test [4] it was 86%. Besides, the absorbance in test [3] amounted to 1.29 OD. The “absorbance w/shed CA 125/O772P competitor (25-fold w/w excess)” value in test [5] is 1.33 OD. Also, the “absorbance w/O772P 3-repeat competitor” value in test [6] was 0.915 OD.
